Laboratory results taken from the supplement of paper PMC9732359.
± gives the uncertainty stated by the source.

Assay: protein stability index of a GFP-peptide fusion (yeast GPS) (PSI 1-4); higher = more stable; sorted into four equal gates, so the index is relative within each strain
Summary of the method: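 Peptides tiling yeast proteins in 17-residue segments were fused downstream of GFP, with Cherry expressed from the same plasmid. As a pooled library in yeast, mid-log cultures grown in leucine-free medium were sorted into four equal gates by GFP/Cherry fluorescence ratio. Gate plasmids were PCR-amplified and Illumina-sequenced, and barcodes linked reads to strains. Each peptide received a protein stability index equal to the sum of each gate's read frequency times its gate number.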

Sequence | protein stability index (doa10∆) | protein stability index (pdr5∆) | protein stability index (san1∆) | protein stability index (ubr1∆)
TTIQTEKVRPTPGEVAS [MCD1] | 2.74 ± 0.043 | 2.44 ± 0.041 | 2.8 ± 0.04 | 2.84 ± 0.034
ESPNYCNALIHIKFSAG [SRB4] | 1.66 ± 0.042 | 1.83 ± 0.039 | 1.93 ± 0.069 | 2.04 ± 0.034
RAKKTRALRRALTKFEA [RPL35A] | – | – | – | 3.11 ± 0.15
TYDMVGGLTKQIKEIKE [RPT6] | 2.26 ± 0.15 | 2.52 ± 0.17 | 1.89 ± 0.23 | 2.56 ± 0.08
LNICRQCFREKANDIGF [RPS29A] | 2.8 ± 0.094 | 2.97 ± 0.12 | 3.07 ± 0.1 | 2.86 ± 0.11
TATTGKRKPAKSSSNRS [RPN4] | 2.68 ± 0.065 | 2.96 ± 0.07 | 2.68 ± 0.047 | 2.85 ± 0.047
SSNTNNNTNNNNTNTGA [SWI1] | 3.48 ± 0.071 | 3.29 ± 0.069 | 3.29 ± 0.057 | 3.33 ± 0.065
TVMFFYHNKHMMCDFGT [DIB1] | 2.58 ± 0.049 | 2.51 ± 0.046 | 2.6 ± 0.046 | 2.54 ± 0.032
LAKILARSIDVEKGVNP [ECM29] | 1.21 ± 0.09 | 1.21 ± 0.062 | 1.4 ± 0.17 | 1.07 ± 0.071
KEALLGQLLKDHLIIEP [ARP9] | 1.79 ± 0.12 | 1.51 ± 0.077 | 1.18 ± 0.16 | 2.45 ± 0.094
TTGISSTGAADGGYNAQ [SMC2] | 3.32 ± 0.13 | 3.4 ± 0.093 | 3.23 ± 0.069 | 3.17 ± 0.11
GDVSSGLFEKSTVSANH [BRN1] | 2.84 ± 0.12 | 3.31 ± 0.094 | 2.74 ± 0.11 | –
QVPQVRSMSGQPPTNVQ [SNF5] | 2.81 ± 0.05 | 3.03 ± 0.042 | 3.06 ± 0.037 | 2.95 ± 0.035
SNIEQTESLRVENSVLI [YIL149C/MLP2] | 3.25 ± 0.091 | 3.09 ± 0.14 | 3.08 ± 0.049 | 3.07 ± 0.064
LKMQQQQQQQQQQQQQQ [GAL11] | 2.69 ± 0.084 | 2.89 ± 0.073 | 2.62 ± 0.073 | 2.64 ± 0.067
KEMTLQKNMNDLLRSQL [YIL149C/MLP2] | 3.08 ± 0.049 | 2.43 ± 0.052 | 2.19 ± 0.082 | 2.64 ± 0.046
SKSPSEWQDIIHQREQE [CSE2] | 3.33 ± 0.16 | 3.31 ± 0.12 | 3.25 ± 0.085 | 3.2 ± 0.14
QQENSKSGKRKPNIILD [RPC31] | 2.83 ± 0.099 | 2.83 ± 0.086 | 2.64 ± 0.089 | 2.79 ± 0.076
IGWCKEDPKRRADTMDF [YJL039C/NUP192] | 3.16 ± 0.21 | 3.56 ± 0.11 | 3.47 ± 0.13 | 3.39 ± 0.12
KFSDLKFILQILQILNL [YML103C/NUP188] | 3.05 ± 0.15 | 2.12 ± 0.29 | 3.48 ± 0.13 | –
RALFRQLKRWYWQFNGV [RMP1] | 2.29 ± 0.18 | 1.24 ± 0.12 | 1.19 ± 0.18 | 1.34 ± 0.11
KTLTGKTITLEVESSDT [RPS31] | 2.62 ± 0.048 | 2.73 ± 0.04 | 2.43 ± 0.065 | 1.97 ± 0.034
LKYLDDLKAQFQELDSK [RPN9] | 3.13 ± 0.097 | 3.23 ± 0.069 | 3.12 ± 0.075 | 3.2 ± 0.064
SSVKTCFKPMSLTSKRL [RIP1] | 3.02 ± 0.063 | 3.04 ± 0.063 | 2.85 ± 0.047 | 2.62 ± 0.033
PSVGVKTMKTFVIHIQE [RPB5] | 2.83 ± 0.087 | 2.82 ± 0.13 | 2.47 ± 0.13 | 2.76 ± 0.1
IHKRYIDLEAPVQIVKR [RPS20] | 2.5 ± 0.13 | 2.78 ± 0.15 | 2.51 ± 0.14 | 2.96 ± 0.12

Sequence | protein stability index (doa10∆) | protein stability index (pdr5∆) | protein stability index (san1∆) | protein stability index (ubr1∆)
KVQISKIPILAQHESFL [RPN9] | 1.97 ± 0.06 | 2.05 ± 0.045 | 2.16 ± 0.075 | 2.41 ± 0.037
APIPKGRVKYTKRQKHF [POP1] | 1.2 ± 0.13 | 1.9 ± 0.12 | 2.2 ± 0.13 | 1.77 ± 0.082
REHSLQLFRTNKVQIMI [PRP28] | 1.61 ± 0.063 | 1.75 ± 0.065 | 1.61 ± 0.084 | 2.07 ± 0.037
ILEDDFAVALKNEPDYS [CDC53] | 3.3 ± 0.088 | 3.09 ± 0.14 | 3.24 ± 0.072 | 2.87 ± 0.12
NNPKVKTSKRTKRWYKN [RPS11A] | 3.36 ± 0.091 | 3.28 ± 0.094 | 3.21 ± 0.12 | 3.19 ± 0.087
FLMGIFNSVVNLSRYPK [MTR3] | 2.6 ± 0.091 | 2.5 ± 0.089 | 2.49 ± 0.13 | 2.32 ± 0.13
KREGKTRLLNIVMQLRK [ISW2] | 2.7 ± 0.078 | 3.02 ± 0.063 | 3.11 ± 0.054 | 2.97 ± 0.057
KIHLYEKKLEDYCRILS [YGL172W/NUP49] | 1.54 ± 0.11 | 2.34 ± 0.12 | 2.3 ± 0.13 | 1.78 ± 0.19
LLLLSLFKKITNVNPSK [YML103C/NUP188] | 1.89 ± 0.03 | 1.9 ± 0.027 | 2.24 ± 0.038 | 1.93 ± 0.027
AWRTLVGVSHTNEEVRN [CYT1] | – | 2.98 ± 0.13 | 1.92 ± 0.15 | 2.18 ± 0.094
KKIREIYRYDEMSNKVL [BRR2] | 2.92 ± 0.097 | 3.06 ± 0.13 | 2.62 ± 0.086 | 3.08 ± 0.045
PRRFGKGSRQCRVCSSH [RPS29B] | 2.96 ± 0.061 | 3.06 ± 0.038 | 2.97 ± 0.043 | 2.912 ± 0.029
ASPHASVRTAVFSALKN [ECM29] | 1.56 ± 0.051 | 1.58 ± 0.05 | 1.25 ± 0.083 | 1.42 ± 0.056
ELSRIENEVENINATNT [YCS4] | 3.52 ± 0.16 | 3.11 ± 0.11 | 3.23 ± 0.053 | 3.14 ± 0.11
YNRHKLQELIVNGPNVH [RPO31] | 1.19 ± 0.11 | 1.48 ± 0.1 | 1.2 ± 0.17 | 1.22 ± 0.095
KKEEELGVKSRLLEKSE [SNF2] | – | 3.01 ± 0.14 | 3.06 ± 0.2 | 3.04 ± 0.29
MPGVSVRDVAAQDFINA [RPS19A] | 1.81 ± 0.12 | 1.31 ± 0.12 | – | 1.16 ± 0.11
ERLAKVNEMNDQLAQEL [NNF1] | 3 ± 0.22 | 3.42 ± 0.17 | 3.28 ± 0.12 | 2.85 ± 0.18
LTKAQKYLEQVLDHQRA [RPL17A] | 2.69 ± 0.056 | 2.73 ± 0.063 | 2.47 ± 0.062 | 2.51 ± 0.039
QLIKQSIKNNVAMCFVI [SNU114] | 1.37 ± 0.16 | 1.69 ± 0.14 | 1.24 ± 0.2 | –
ELPKKLLNLPPFQVSSF [SRB8] | 1.77 ± 0.039 | 1.85 ± 0.034 | 1.9 ± 0.055 | 1.78 ± 0.041
NNGDKDHLKLVSLFSNL [YIL149C/MLP2] | 2.42 ± 0.09 | 2.67 ± 0.19 | 2.5 ± 0.26 | 2.44 ± 0.096
NDGNNRTNNVPMIKAEE [NUT1] | 3.05 ± 0.17 | 3.31 ± 0.14 | 2.65 ± 0.17 | 3.77 ± 0.16
IITNINAIFLSSEQDYS [YCG1] | 2.54 ± 0.078 | 2.58 ± 0.13 | 1.58 ± 0.22 | 2.89 ± 0.098
LYAITFRKGLGNPLLYD [QCR2] | 1.25 ± 0.17 | 1.32 ± 0.25 | – | –
RQINKLIDSLPGVDVSA [SRB7] | 2.43 ± 0.056 | 2.06 ± 0.05 | 1.6 ± 0.077 | 1.9 ± 0.038
